Results on twelve molecules are retold here after patent US20250197448A1 (UNIVERSITY OF ROCHESTER, published 2025).

Starred links: 1 amine or outer side, 2 acyl side, 3 side chain; linkers in the order of their positions; H or OH if unused. Positions of bridges follow the written chain, without caps; N, C: chain ends. Non-standard residues stand in square brackets, D forms with d. Primed or numbered codes have the meaning given here. No end group written: not given here. O2beY = O-(2-bromoethyl)-tyrosine (p-2beF), reacts with Cys to form a thioether, O=C([C@H](Cc1ccc(OCCBr)cc1)N[*:1])[*:2]; pCaaF″ = p-(2-chloro-acetamido)-phenylalanine, thioether-linked to Cys, O=C(C[*:3])Nc1ccc(C[C@H](N[*:1])C(=O)[*:2])cc1; pCaaF = p-(2-chloroacetamido)-phenylalanine, O=C(CCl)Nc1ccc(C[C@H](N[*:1])C(=O)[*:2])cc1

What is called Kd is the equilibrium constant for the complex coming apart. By IC50 is commonly meant the concentration that inhibits the measured activity by half.

For test [1], the target named is T1, streptavidin (UniProt P22629 37-163, limits assumed). The test is described as follows: plate binding assay on streptavidin-coated plates.
T1 sequence (P22629 37-163 limits assumed): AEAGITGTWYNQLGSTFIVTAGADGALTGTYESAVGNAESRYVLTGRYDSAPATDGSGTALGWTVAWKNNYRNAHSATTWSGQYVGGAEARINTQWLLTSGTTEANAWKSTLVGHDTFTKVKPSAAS
The target in test [2] is T1, streptavidin. The test is described as follows: plate binding assay: streptavidin-coated plate, FLAG-tagged binder titrated, HRP anti-FLAG detection, 1:1 isotherm fit. An excerpt: The resulting cyclopeptibody (called Strep-m3-Tras-Fc) was expressed, purified, and characterized as described in Example 4. This construct was confirmed to contain the cyclic peptide constrained via O2beY/Cys thioether (i/i-8) linkage, where ‘i’ indicates the position of the non-canonical amino acid O2beY (also refereed to herein as p-2beF). The cyclopeptibody Strep-m3-Tras-Fc was then characterized for its streptavidin binding affinity using a reported in vitro binding assay (Owens et al, ACS Cent Sci. (2020); 6(3):368-381).
Streptavidin Binding Assay. For the streptavidin binding assays, streptavidin-coated plates (Sigma-Aldrich) were used. […] After washing three times with wash buffer, 100 μL of 2.2 mM o-phenylenediamine dihydrochloride, 4.2 mM urea hydrogen peroxide, 100 mM dibasic sodium phosphate, and 50 mM sodium citrate, pH 5.0, were added to each well, followed by measurement of the absorbance at 450 nm after 10-20 min using a Tecan Infinite 1000 plate reader. Equilibrium dissociation constants (Kp) were determined by fitting the dose-response curves to a 1:1 binding isotherm equation via nonlinear regression. using SigmaPlot. Mean values and standard deviations were calculated from experiments performed in triplicate.

The target of test [3] is T2, Kelch-like ECH-associated protein 1 (Keap1) (human, UniProt Q14145 321-609, limits assumed). The test is described as follows: plate binding assay: immobilised Keap1, FLAG-tagged binder titrated, HRP anti-FLAG detection, 1:1 isotherm fit. The procedure:
(§1) Streptavidin Binding Assay. For the streptavidin binding assays, streptavidin-coated plates (Sigma-Aldrich) were used. For the Keap1, Shh and PD-L1 binding assay, target protein was immobilized on microtiter plates by incubating 100 μL of a 4 μM protein solution in PBS buffer overnight at 4° C., followed by decanting the protein solution and blocking with 0.5% bovine serum albumin in PBS for 2 h at room temperature. After washing (3×150 μL of PBS with 0.05% Tween-20), each well was incubated with 100 μL of purified FLAG-tagged cyclopeptibody at varying concentrations for 1 hour at room temperature. After washing three times with wash buffer, each well was incubated with 100 μL of 1:2500 dilution of HRP-conjugate mouse anti-FLAG polyclonal antibody (Sigma-Aldrich) for 1 hour at room temperature. After washing three times with wash buffer, 100 μL of 2.2 mM o-phenylenediamine dihydrochloride, 4.2 mM urea hydrogen peroxide, 100 mM dibasic sodium phosphate, and 50 mM sodium citrate, pH 5.0, were added to each well, followed by measurement of the absorbance at 450 nm after 10-20 min using a Tecan Infinite 1000 plate reader. Equilibrium dissociation constants (Kp) were determined by fitting the dose-response curves to a 1:1 binding isotherm equation via nonlinear regression. using SigmaPlot. Mean values and standard deviations were calculated from experiments performed in triplicate.

The target in test [4] is T3, PD-L1 (Programmed Death-Ligand 1), recombinant, His-tagged (human, UniProt Q9NZQ7 18-134, limits assumed).
T3 construct: Immobilised on microtiter plates
T3 sequence (Q9NZQ7 18-134 limits assumed): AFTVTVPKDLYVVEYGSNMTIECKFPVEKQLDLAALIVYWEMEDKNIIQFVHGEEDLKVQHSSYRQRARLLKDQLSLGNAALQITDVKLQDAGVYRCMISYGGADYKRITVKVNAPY
The test is described as follows: plate binding assay with immobilised PD-L1. The procedure: as §1, with “After” for “Streptavidin Binding Assay. For the streptavidin binding assays, streptavidin-coated plates (Sigma-Aldrich) were used. For the Keap1, Shh and PD-L1 binding assay, target protein was immobilized on microtiter plates by incubating 100 μL of a 4 μM protein solution in PBS buffer overnight at 4° C., followed by decanting the protein solution and blocking with 0.5% bovine serum albumin in PBS for 2 h at room temperature. After”
To illustrate this aspect of the invention, a series of PD-L1 targeting cyclopeptibodies were prepared by introducing variable spacer sequences between the cyclic peptide and Fc domain in the PD-L1-targeting cyclopeptibody cRK10-Tras-Fc (Table 1, Entries 31-34; FIG. 20). The spacer sequences included a more flexible (-GSGSGS-), more rigid (-PAPAP-; -EAAAK-) or longer linker (Q12) compared to the exa-glutamine (Q6) spacer sequence in cyclopeptibody cRK10-Tras-Fc.

Test [5] addresses T3, PD-L1 (Programmed Death-Ligand 1), …. The test is described as follows: plate binding assay: immobilised PD-L1, FLAG-tagged binder titrated, HRP anti-FLAG detection. How it is done: as §1
The target is the same in test [6]. The test is described as follows: competition assay: plate-immobilised PD-L1, competitor biotinylated PD-1 (500 nM), bound PD-1 read with HRP-streptavidin. The procedure: as §1, with “After washing three times with wash buffer, each well was incubated with 100 μL of 1:2500 dilution of HRP-conjugate mouse anti-FLAG polyclonal antibody (Sigma-Aldrich) for 1 hour at room temperature.” left out
PD-L1 Competition Assay. […] After washing, the bound PD-1 was quantified by means of HRP-conjugate Streptavidin and colorimetric assay as described above. […]

For test [7], the target named is T4, PD-L1 on the surface of MDA-MB-231 breast cancer cells (human, UniProt Q9NZQ7 19-290).
T4 construct: whole, on cells; also called PD-L1 receptor on the cancer cells
T4 sequence (Q9NZQ7 19-290): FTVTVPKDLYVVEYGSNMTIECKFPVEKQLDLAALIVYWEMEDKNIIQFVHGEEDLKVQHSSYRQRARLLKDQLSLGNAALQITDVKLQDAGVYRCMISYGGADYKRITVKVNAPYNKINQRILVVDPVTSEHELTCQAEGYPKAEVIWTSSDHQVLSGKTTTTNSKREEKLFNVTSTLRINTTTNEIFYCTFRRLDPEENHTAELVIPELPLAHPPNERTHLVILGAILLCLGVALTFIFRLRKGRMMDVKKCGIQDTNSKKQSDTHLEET
The test is described as follows: flow cytometry on MDA-MB-231 cells, 0.09 mg/ml, FITC anti-human IgG Fc secondary. The procedure: The cells were then incubated with fluorescein-conjugated anti-human IgG Fc antibody and analyzed by flow cytometry. The same experiment was carried out in parallel using commercially available anti-PD-L1 antibody as positive control and various negative controls. […] Several applications for these compounds can be easily envisioned, including detection and/or staining of PD-L1 in vitro and in vivo (e.g., upon conjugation of the cyclopeptibody with a fluorescent dye, IR probe, or PET contrast agent), cell-targeted drug delivery (e.g., upon conjugation of the PD-L1-binding cyclopeptibody with a drug cargo), and use as therapeutic agents in cancer immunotherapy, among others.
(In general: A flow cytometer gives signals particle by particle.)

For test [8], the target named is T2, Kelch-like ECH-associated protein 1 …. The test is described as follows: plate binding assay with immobilised Keap1. The procedure:
Keap1 Binding Assay. For the Keap1 binding assay, Keap1 was immobilized on microtiter plates by incubating 100 μL of a 4 μM protein solution in PBS buffer overnight at 4° C., followed by washing (3×150 μL of PBS with 0.5% Tween-20) and blocking with 0.5% bovine serum albumin in PBS for 1.5 h at room temperature. After washing, each well was incubated with 100 μL of purified FLAG-tagged peptide at varying concentrations for 1 hour at room temperature. After washing three times with wash buffer, each well was incubated with 100 μL of 1:2500 dilution of HRP-conjugate mouse anti-FLAG polyclonal antibody (Sigma-Aldrich) for 1 hour at room temperature. After three washing steps with wash buffer, 100 μL of 2.2 mM o-phenylenediamine dihydrochloride, 4.2 mM urea hydrogen peroxide, 100 mM dibasic sodium phosphate, and 50 mM sodium citrate, pH 5.0, were added to each well, followed by measurement of the absorbance at 450 nm after 10-20 min using a Tecan Infinite 1000 plate reader. Equilibrium dissociation constants (KD) were determined by fitting the dose-response curves to a 1:1 binding isotherm equation via nonlinear regression using SigmaPlot. Mean values and standard deviations were calculated from experiments performed in triplicate. […]

For another test, the target named is Sonic Hedgehog (Shh) (human, UniProt Q15465 24-197, limits assumed). As to the kind of experiment: plate binding assay: immobilised Shh, FLAG-tagged binder titrated, HRP anti-FLAG detection.

T2 sequence (Q14145 321-609 limits assumed): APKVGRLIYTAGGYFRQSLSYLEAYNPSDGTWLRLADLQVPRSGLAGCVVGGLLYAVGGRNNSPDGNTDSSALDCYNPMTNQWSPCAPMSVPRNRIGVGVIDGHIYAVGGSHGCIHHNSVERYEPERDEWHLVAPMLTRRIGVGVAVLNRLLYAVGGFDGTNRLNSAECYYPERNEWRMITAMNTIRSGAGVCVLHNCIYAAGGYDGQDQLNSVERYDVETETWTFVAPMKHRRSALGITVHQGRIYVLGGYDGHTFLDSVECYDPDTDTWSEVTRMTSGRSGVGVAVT

B1: Strep-m3-Tras-Fc (Fc fusion)
chain: DYKDDDDKGSGSSCWWHPQGD[O2beY]QQQQQQ-{Fc-H6}
modifications: thioether 14-22; also: dimeric through the Fc
notes: Cyclic peptide fused through a (Gln)6 spacer to human IgG1 Fc; dimeric through the Fc; made in E. coli; also called FLAG-(GS)2-SCWWHPQGDZ-(Q)6-(Fc)^1-H6
In the case of B1, the “fold improved affinity against the same cyclic peptide fused to CBD” value in the test with streptavidin [1] amounted to 1.3 fold. The same molecule gave a Kd in the test with streptavidin [2] of 37 nM.

B2: cyclic peptide KKD-m1 alone (as CBD fusion) (peptide)
chain: [O2beY]DSETGEC
modifications: thioether 1-8; also: as CBD fusion
The molecule B2 yielded a dissociation constant (Kd) in [3] of 85 nM.

B3: FLAG-cRK10-Q12-Tras-Fc-His (Fc fusion)
chain: DYKDDDDKGSGSTYLCGAISLA[pCaaF]KAQIKESLQQQQQQQQQQQQ-{Fc-H6}
modifications: thioether 16-23
notes: Spacer variant of cRK10-Tras-Fc (Q12); also called FLAG-(GS)2-TYLCGAISLAZKAQIKESL-(Q)12-(Fc)^1-H6
In the case of B3, the Kd in [4] was 237 nM.

B4: cyclic peptide cRK10 (pCaaF) (peptide)
chain: TYLCGAISLA[pCaaF]KAQIKESL
modifications: thioether 4-11
Regarding B4, the Kd in test [4] is 13000 nM.

B5: cCLP003 (pCaaF)-Tras-Fc (Fc fusion)
chain: DYKDDDDKGSGSWHFS[pCaaF]NWRWLPCQQQQQQ
modifications: thioether 17-24 (inferred); not fully specified (C-terminus)
notes: also called cCLP003-Tras-Fc; cCLP003-Tras-Fc-His
As to B5, the Kd in test [5] was roughly 250 nM. The “fold increase in affinity against the cyclic peptide alone” value in [4] worked out at 40 fold. The IC50 in test [6] is 6000 nM. Moreover, in test [7], the “fold higher MFI against cRK10-Tras-Fc” value amounted to 4 fold.

B6: cyclic peptide cCLP003 (pCaaF) (peptide)
chain: WHFS[pCaaF″]NWRWLPC
modifications: thioether 5-12; not fully specified
Take B6: in [4], the Kd was roughly 10000 nM and the “fold higher affinity against the linear CLP003 peptide” value was roughly 40 fold.

B7: KKD-m1-Tras-Fc (Fc fusion)
chain: DYKDDDDKGSGS[O2beY]DSETGECQQQQQQ-{Fc-H6}
modifications: thioether 13-20; also: dimeric through the Fc
notes: Cyclic peptide fused through a (Gln)6 spacer to human IgG1 Fc; dimeric through the Fc; made in E. coli; also called FLAG-(GS)2-ZDSETGEC-(Q)6-(Fc)^1-H6
In the case of B7, in test [8], the “fold improved affinity against the same cyclic peptide fused to CBD” value was greater than 20 fold. The Kd in test [3] was 4 nM.

B8: cyclic peptide Strep-m3 alone (as CBD fusion) (peptide)
chain: SCWWHPQGD[O2beY]
modifications: thioether 2-10; also: as CBD fusion
As to B8, in the test with streptavidin [2], binding was characterised by a dissociation constant (Kd) of 50 nM.

B9: FLAG-KKD-m1-KKD-m1-Tras-Fc-His (Fc fusion)
chain: DYKDDDDKGSGSYDSETGECGSGSENLYFQGSGSYDSETGECIEGRGSGS
modifications: thioether (positions not given here); not fully specified (residues 13, 35, C-terminus, bridges); also: two O2beY, each thioether-linked to Cys of its own cyclic peptide, places them at C20 and L27
notes: Two copies of the KKD-m1 cyclic peptide in tandem on each Fc chain; also called polyvalent Keap1-targeting cyclopeptibody
B9: in test [8], binding was characterised by a dissociation constant (Kd) of 45 nM.

B10: cyclic peptide L2-m5 alone (as CBD fusion) (peptide)
chain: TLSW[O2beY]EAMDMCTSS
modifications: thioether 5-11; also: as CBD fusion
B10: the affinity with Sonic Hedgehog (Shh), expressed as Kd, was 388 nM.

B11: cRK10 (pCaaF)-Tras-Fc (Fc fusion)
chain: DYKDDDDKGSGSTYLCGAISLA[pCaaF]KAQIKESLQQQQQQ-{Fc-H6}
modifications: thioether 16-23
notes: also called cRK10-Tras-Fc; RK10-Tras-Fc-His
With B11, the Kd in [5] is 40 nM. In addition, in test [4], the Kd was 42 nM, the “fold higher PD-L1 binding affinity against FLAG-cRK10-Q12-Tras-Fc-His” value stood at 6 fold and the “fold higher binding affinity against the cyclic peptide cRK10” value was 300 fold.

B12: FLAG-Strep-m3-Strep-m3-Tras-Fc-His (Fc fusion)
chain: DYKDDDDKGSGSSCWWHPQGD[O2beY]GSGSENLYFQGSGSSCWWHPQGD[O2beY]IEGRGSGS-{Fc-His}
modifications: thioether 14-22, 38-46; not fully specified; also: second O2beY at Y30, thioether-linked to Cys of its own cyclic peptide
notes: Two copies of the Strep-m3 cyclic peptide in tandem on each Fc chain; also called polyvalent streptavidin-targeting cyclopeptibody
The molecule B12 registered a Kd in the test with streptavidin [1] of 56 nM.
